In publication PMC6509359 (Molecular Cell, 2019):
“And” between values parts separate entries of the source, which are not always exact repeats. Equal entries are not always repeated.

What was measured:
[1] = target: the molecule itself; assay: not stated; oligomeric states of purified orthologs and of full-length proteins, Figures S7A, S7B and S3J
[2] = target: the molecule itself; assay: SEC-MALS; 100 μL of 1-2 mg/mL protein on Superdex 200 10/300, 0.5 mL/min, PBS + 2 mM DTT
[3] = target: T1, ubiquitin-propargylamine, Ub(1-75)-PA (UniProt P0CG48 1-75, C-terminal propargylamine (PA) after residue 75); assay: covalent reaction with the ubiquitin-propargylamine probe; 1.3 eq of His6-3C-Ub(1-75)-PA, 1–4 h at 4°C; complex purified over HisTrap by the probe's tag, 3C protease, gel filtration; conditions: both partners purified
T1 construct: ubiquitin residues 1-75, C-terminus carries propargylamine (reactive probe); reacts covalently with the DUB; the His6-3C tag was on the probe during the reaction and the HisTrap step and was cut off with 3C protease before gel filtration; also called Ub-PA; His6-3C-Ub(1-75)-PA; source: assembled as described previously (Gersch et al., 2017), > 95% purity by intact protein mass spectrometry; not …

[4] = target: the molecule itself; assay: native gel or EMSA; native PAGE of lysates of HEK293 cells transfected with FLAG- or HA-tagged proteins, immunoblotting; recombinant USP25 tetramer and dimer fractions as size standard

B1: G. gallus USP28 (143-706) (domain or fragment, chicken (Gallus gallus), UniProt Q5ZID5 143-706, looked up)
chain: SKQSDWKRVGDWPVGMKNIGNTCWFSAVIQSLFQLPQFRRLVLSYSFPPNVLESCRTRTGKRNIAFMQELQCLFALMLGTRRKFVDPSAALELLRDAFKSTEEQQQDVSEFTHKLLDWLEDAFQLAVNVRSPGDKSENPMVQLFYGTFLTEGVHEGNTFSKIETFGQYPLQVNGYRNLNECLEGAMVEGEMDEETATQSVKYVQERWFTKLPPVLTFELSRFEFNQSLGQPEKIHTKLEFPQTIFMDRYLYCSKELIQTKREEMKKLKEKMLVLQQKLERYMKYGSGPARFPLPDMLQYVLEFITTKPAGAVSSACVSSTEDSQMMDRQSQGESLILGTPSQPDSMLDGKDGKPEDEAVLLANSSPQQQLNAPLQPSEPPAEMSDCPAPHVVSEEEMNLVTTCLQRWRNEIEQDVRDLKESIARVSLSIDEMYSDPHLQQVPYHLHAVLVHEGQANAGHYWAFIYDQPRKSWLKYNDISVTESSWEELERDSFGGLRNASAYCLMYISDKVSHVVAGEGDGSEVGQFQKEVEALPPELRRYIQEDNWRLEQEAEEWEEEQSCKI
notes: USP28, chicken, residues 143-706; also called USP28 catalytic domain from chicken; source: E. coli Rosetta2(DE3)pLacI, purified (HisTrap, 3C protease, Resource Q, size exclusion)
For B1, the “stoichiometry N” value [1] was 2.

B2: Human USP25 (157-720) (domain or fragment, UniProt Q9UHP3 157-720, looked up)
chain: NPYDRKRQDKAPVGLKNVGNTCWFSAVIQSLFNLLEFRRLVLNYKPPSNAQDLPRNQKEHRNLPFMRELRYLFALLVGTKRKYVDPSRAVEILKDAFKSNDSQQQDVSEFTHKLLDWLEDAFQMKAEEETDEEKPKNPMVELFYGRFLAVGVLEGKKFENTEMFGQYPLQVNGFKDLHECLEAAMIEGEIESLHSENSGKSGQEHWFTELPPVLTFELSRFEFNQALGRPEKIHNKLEFPQVLYLDRYMHRNREITRIKREEIKRLKDYLTVLQQRLERYLSYGSGPKRFPLVDVLQYALEFASSKPVCTSPVDDIDASSPPSGSIPSQTLPSTTEQQGALSSELPSTSPSSVAAISSRSVIHKPFTQSRIPPDLPMHPAPRHITEEELSVLESCLHRWRTEIENDTRDLQESISRIHRTIELMYSDKSMIQVPYRLHAVLVHEGQANAGHYWAYIFDHRESRWMKYNDIAVTKSSWEELVRDSFGGYRNASAYCLMYINDKAQFLIQEEFNKETGQPLVGIETLPPDLRDFVEEDNQRFEKELEEWDAQLAQKALQEKLLASQ
notes: also called USP25 catalytic domain; source: E. coli Rosetta2(DE3)pLacI, purified (HisTrap, 3C protease, Resource Q, size exclusion)
For B2, the “stoichiometry N” value [2] was 4 and the binding result [3] was “binds”.

B3: HA-USP28 (2-1077) (enzyme, human, UniProt Q96RU2 2-1077, looked up)
chain: TAELQQDDAAGAADGHGSSCQMLLNQLREITGIQDPSFLHEALKASNGDITQAVSLLTDERVKEPSQDTVATEPSEVEGSAANKEVLAKVIDLTHDNKDDLQAAIALSLLESPKIQADGRDLNRMHEATSAETKRSKRKRCEVWGENPNPNDWRRVDGWPVGLKNVGNTCWFSAVIQSLFQLPEFRRLVLSYSLPQNVLENCRSHTEKRNIMFMQELQYLFALMMGSNRKFVDPSAALDLLKGAFRSSEEQQQDVSEFTHKLLDWLEDAFQLAVNVNSPRNKSENPMVQLFYGTFLTEGVREGKPFCNNETFGQYPLQVNGYRNLDECLEGAMVEGDVELLPSDHSVKYGQERWFTKLPPVLTFELSRFEFNQSLGQPEKIHNKLEFPQIIYMDRYMYRSKELIRNKRECIRKLKEEIKILQQKLERYVKYGSGPARFPLPDMLKYVIEFASTKPASESCPPESDTHMTLPLSSVHCSVSDQTSKESTSTESSSQDVESTFSSPEDSLPKSKPLTSSRSSMEMPSQPAPRTVTDEEINFVKTCLQRWRSEIEQDIQDLKTCIASTTQTIEQMYCDPLLRQVPYRLHAVLVHEGQANAGHYWAYIYNQPRQSWLKYNDISVTESSWEEVERDSYGGLRNVSAYCLMYINDKLPYFNAEAAPTESDQMSEVEALSVELKHYIQEDNWRFEQEVEEWEEEQSCKIPQMESSTNSSSQDYSTSQEPSVASSHGVRCLSSEHAVIVKEQTAQAIANTARAYEKSGVEAALSEVMLSPAMQGVILAIAKARQTFDRDGSEAGLIKAFHEEYSRLYQLAKETPTSHSDPRLQHVLVYFFQNEAPKRVVERTLLEQFADKNLSYDERSISIMKVAQAKLKEIGPDDMNMEEYKKWHEDYSLFRKVSVYLLTGLELYQKGKYQEALSYLVYAYQSNAALLMKGPRRGVKESVIALYRRKCLLELNAKAASLFETNDDHSVTEGINVMNELIIPCIHLIINNDISKDDLDAIEVMRNHWCSYLGQDIAENLQLCLGEFLPRLLDPSAEIIVLKEPPTIRPNSPYDLCSRFAAVMESIQGVSTVTVK
notes: USP28, human, residues 2-1077; also called hemagglutinin (HA)-tagged USP28, wild type; source: HEK293, transfected (pOPINE), in lysate; not shown: HA, N-terminal, kept
With B3 the “stoichiometry N” value [4] was 2.

B4: M. musculus USP25 (157-715) (domain or fragment, mouse (Mus musculus), UniProt P57080 157-715, looked up)
chain: NPYDRKRQEKAPVGLKNVGNTCWFSAVIQSLFNLLEFRRLVLNYKPPSNAQDLPRNQKEHRNLPFMRELRYLFALLVGTKRKYVDPSRAVEILKDAFKSNDSQQQDVSEFTHKLLDWLEDAFQMKAEEETDEEKPKNPMVELFYGRFLAMGVLEGKKFENTEMFGQYPLQVNGFKDLHECLEAAMIEGEIESLHSDNSGKSGQEHWFTELPPVLTFELSRFEFNQALGRPEKIHNKLEFPQVLYLDRYMHRNREITRIKREEIKRLKDYLTVLQQRLERYLSYGSGPKRFPLVDVLQYALEFASSKPVCTSPVDDIDASSSASGPLPSQSLPSTTEQQGPCASDLPGSSSPASGAALPLRSVIHKPFTQSRIPPDLPMHPAPRHITEEELCVLESCLHRWRTEIENDTRDLQESISRIHRTIELMYSDKSMIQVPYRLHAVLVHEGQANAGHYWAYIFDHRESRWMKYNDIAVTKSSWEELVRDSFGGYRNASAYCLMYIDDKAQFLIQEEFNKETGQALVGMETLPPDLRDFVEEDNQRFEKELEEWDTQLAQRSLQE
notes: also called USP25 catalytic domain from mouse; source: E. coli Rosetta2(DE3)pLacI, purified (HisTrap, 3C protease, Resource Q, size exclusion)
For B4, the “stoichiometry N” value [1] was 4 and the binding result [3] was “binds”.

B5: M. musculus USP25 (1-1055) (enzyme, mouse (Mus musculus), UniProt P57080 1-1055, looked up)
chain: MTVEQNVLQQSAAQKHQQTFLNQLREITGINDAQILQQALKDSNGNLELAVAFLTAKNAKTPPQEETGYYQTALPGNDRYISVGSQADANVIDLTGDDKDDLQRAIALSLAESNRAFRETGITDEEQAISRVLEASIAENKACLKRTPIEVWRDSRNPYDRKRQEKAPVGLKNVGNTCWFSAVIQSLFNLLEFRRLVLNYKPPSNAQDLPRNQKEHRNLPFMRELRYLFALLVGTKRKYVDPSRAVEILKDAFKSNDSQQQDVSEFTHKLLDWLEDAFQMKAEEETDEEKPKNPMVELFYGRFLAMGVLEGKKFENTEMFGQYPLQVNGFKDLHECLEAAMIEGEIESLHSDNSGKSGQEHWFTELPPVLTFELSRFEFNQALGRPEKIHNKLEFPQVLYLDRYMHRNREITRIKREEIKRLKDYLTVLQQRLERYLSYGSGPKRFPLVDVLQYALEFASSKPVCTSPVDDIDASSSASGPLPSQSLPSTTEQQGPCASDLPGSSSPASGAALPLRSVIHKPFTQSRIPPDLPMHPAPRHITEEELCVLESCLHRWRTEIENDTRDLQESISRIHRTIELMYSDKSMIQVPYRLHAVLVHEGQANAGHYWAYIFDHRESRWMKYNDIAVTKSSWEELVRDSFGGYRNASAYCLMYIDDKAQFLIQEEFNKETGQALVGMETLPPDLRDFVEEDNQRFEKELEEWDTQLAQRSLQEKLLAAPKLREAEASATTAQAGGADYLEQPSRSDLSKHWKEETLRVIAKASHDLEDKGPETVLQSAIKLEYSRLVKLAQEDTPPETDYRLHHVLVYFIQNQAPKKIIEKTLLEQFGDRNLSFDERCHNIMKVAQAKLEMIKPEEVNLEEYEEWHADYKKFRETTMYLITGLENFQRESYIDSLLFLLCAYQNNKELLSKGPYRGHDGELISHYRRECLLKLNEQAAELFESGEDGDVNNGLIIMNEFIVPFLPLLLVDDMEEKDILAVEDMRNRWCSYLGQEMEANLQEKLTDFLPKLLDCSTEIKGFHEPPKLPSYSAHELCERFARIMLSLSRTPADGR
notes: dimer-tetramer equilibrium; also called full-length mouse USP25; source: E. coli Rosetta2(DE3)pLacI, purified (HisTrap, 3C protease, Resource Q, size exclusion)
B5 was tested, and the “stoichiometry N” value [1] was 2 and 4.
